Assay results from patent US20100279943A1 (RAMAT AT TEL AVIV UNIVERSITY, published 2010).

B1: myc-tagged peptide 217-239 of cytMDH (peptide)
peptide: SWLKGEFITTVQQRGAAVIKARK
notes: Expressed from a plasmid inside NSC-34 cells; not shown: human myc tag in frame with the peptide
B2: myc-tagged peptide 14-27 of cytMDH (peptide)
peptide: GQIAHSLLYSIGNG
notes: Expressed from a plasmid inside NSC-34 cells; also called myc-tagged 14-27 peptide; not shown: human myc tag in frame with the peptide

Target: T1, G93A-hSOD1-CFP (human, UniProt P00441 2-154, G93A)
T1 construct: Transiently expressed in NSC-34 cells; FRET donor; also called G93A SOD1-CFP; pECFP-G93A-hSOD1; not shown: CFP (from pECFP plasmid) attached to the C-terminus of SOD1
Experiment: FACS sorting of cells without G93A SOD1-CFP/MDH1-YFP FRET after transfection of the myc-tagged MDH1 peptide library

T1 sequence (P00441 2-154 G94A): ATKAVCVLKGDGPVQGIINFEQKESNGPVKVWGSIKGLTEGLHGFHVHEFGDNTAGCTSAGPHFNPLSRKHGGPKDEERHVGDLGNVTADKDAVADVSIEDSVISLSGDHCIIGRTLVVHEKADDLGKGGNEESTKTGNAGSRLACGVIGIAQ

Binder | binding result
B1 | binds
B2 | binds
